The text below walks through data of patent US20220119534A1 (DRAGONFLY THERAPEUTICS, published 2022).

A word on the koff: it is a measure of how fast the partners let go of each other. Lower therefore signals a long-lived complex. As a reminder, the kon is the second-order rate constant of association. A lower kon goes with slow association. Usually Kd stands for a measure of binding affinity in units of concentration. A high value points to lower affinity.

The target in one experiment is T1, mFc-hNKG2D (human, UniProt P26718 73-216).
T1 construct: extracellular domain; Made in house (Dragonfly Tx); the order of tag and ECD follows the name mFc-hNKG2D; also called mFc-tagged human NKG2D; not shown: mouse Fc tag
T1 sequence (looked up): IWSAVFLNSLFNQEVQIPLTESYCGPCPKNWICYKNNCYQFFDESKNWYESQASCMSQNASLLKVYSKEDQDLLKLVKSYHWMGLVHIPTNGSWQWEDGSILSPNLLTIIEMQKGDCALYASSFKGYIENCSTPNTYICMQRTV
Briefly: SPR Biacore 8K 37 C; mFc-hNKG2D captured on anti-mFc chip, TriNKET as analyte; 1:1 kinetic fit. In general terms: Surface plasmon resonance follows binding to a sensor surface in real time, without labels.

The target in experiment [1] is T2, Human CLEC12A-His (human, UniProt Q5QGZ9 65-265).
T2 construct: Recombinant soluble protein made in house (Dragonfly Tx); The hCLEC12A spot of the HuProt array is written under this molecule as well; also called hCLEC12A-His; hCLEC12A; not shown: His tag
T2 sequence: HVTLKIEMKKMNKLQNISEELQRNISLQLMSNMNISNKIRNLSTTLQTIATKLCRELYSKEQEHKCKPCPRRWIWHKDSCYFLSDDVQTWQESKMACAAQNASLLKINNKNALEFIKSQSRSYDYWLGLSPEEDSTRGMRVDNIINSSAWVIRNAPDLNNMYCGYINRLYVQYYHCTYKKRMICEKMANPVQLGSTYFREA
Briefly: SPR Biacore 8K 37 C; TriNKET captured on anti-hFc chip, hCLEC12A-His as analyte; 1:1 fit; control sample, n=2.

The target in experiment [2] is T2, Human CLEC12A-His. Nature of the experiment: SPR Biacore 8K 37 C; TriNKET captured on anti-hFc chip, hCLEC12A-His as analyte; 1:1 fit; un-oxidized control, n=2.
Experimental: Briefly, human Fc specific antibodies were covalently immobilized at a density ˜8000-10000 resonance units (RU) on carboxy methyl dextran matrix of a CM5 biosensor chip via amine-coupling chemistry to create an anti-hFc IgG chip. […] Association was monitored for 300 seconds and dissociation was monitored for 600 seconds. Surfaces were regenerated between cycles with three pulses of 10 mM glycine-HCl, pH 1.7 injected for 20 seconds at 100 μL/min. HBS-EP+ (1×) with 0.1 mg/mL BSA buffer was used throughout the experiment. Data were analyzed using Biacore 8K Insight evaluation software (GE Healthcare). The kinetic rate constants and overall affinity were obtained using 1:1 kinetic fit binding model (FIGS. 71A-71B).

Values joined by “and” are separate entries in the source; they are usually repeats but may differ in a detail not shown here. Equal entries are not always repeated.

Experimental for mFc-hNKG2D: Association was monitored for 60 seconds, and dissociation was monitored for 60 seconds. Surfaces were regenerated between cycles with three pulses of 10 mM glycine-HCl (pH 1.7) injected for 20 seconds at 100 μL/min.
Two different fits were utilized to obtain the equilibrium affinity data: steady state affinity fit and kinetic fit.

B1: F3'-1602 TriNKET (bispecific antibody, human IgG1, kappa)
chain: QLQLQESGPGLVKPSETLSLTCTVSGFSLTNYGLHWIRQPPGKCLEWIGVIWSGGKTDYNPSLKSRVTISKDTSKNQFSLKLSSVQAADTAVYYCAKYDYDDSLDYWGQGTLVTVSSGGGGSGGGGSGGGGSGGGGSDIQMTQSPSSLSASVGDRVTITCHASQNINFWLSWYQQKPGKAPKLLIYEASNLHTGVPSRFSGSGSGTRFTLTISSLQPEDIATYYCQQSHSYPLTFGCGTKLEIKGSDKTHTCPPCPAPELLGGPSVFLFPPKPKDTLMISRTPEVTCVVVDVSHEDPEVKFNWYVDGVEVHNAKTKPREEQYNSTYRVVSVLTVLHQDWLNGKEYKCKVSNKALPAPIEKTISKAKGQPREPRVYTLPPCRDELTKNQVSLTCLVKGFYPSDIAVEWESNGQPENNYKTTPPVLVSDGSFTLYSKLTVDKSRWQQGNVFSCSVMHEALHNHYTQKSLSLSPG
heavy: EVQLVESGGGLVKPGGSLRLSCAASGFTFSSYSMNWVRQAPGKGLEWVSSISSSSSYIYYADSVKGRFTISRDNAKNSLYLQMNSLRAEDTAVYYCARGAPIGAAAGWFDPWGQGTLVTVSSASTKGPSVFPLAPSSKSTSGGTAALGCLVKDYFPEPVTVSWNSGALTSGVHTFPAVLQSSGLYSLSSVVTVPSSSLGTQTYICNVNHKPSNTKVDKKVEPKSCDKTHTCPPCPAPELLGGPSVFLFPPKPKDTLMISRTPEVTCVVVDVSHEDPEVKFNWYVDGVEVHNAKTKPREEQYNSTYRVVSVLTVLHQDWLNGKEYKCKVSNKALPAPIEKTISKAKGQPREPQVCTLPPSRDELTENQVSLTCLVKGFYPSDIAVEWESNGQPENNYKTTPPVLDSDGSFFLYSWLTVDKSRWQQGNVFSCSVMHEALHNHYTQKSLSLSPG
light: DIQMTQSPSSVSASVGDRVTITCRASQGISSWLAWYQQKPGKAPKLLIYAASSLQSGVPSRFSGSGSGTDFTLTISSLQPEDFATYYCQQGVSFPRTFGGGTKVEIKRTVAAPSVFIFPPSDEQLKSGTASVVCLLNNFYPREAKVQWKVDNALQSGNSQESVTEQDSKDSTYSLSSTLTLSKADYEKHKVYACEVTHQGLSSPVTKSFNRGEC
notes: Trispecific F3' format: CLEC12A scFv-Fc paired with NKG2D Fab-Fc; Stressed and control samples of the stability studies are the same molecule; also called AB0237
Take B1: in the experiment with mFc-hNKG2D, the koff is 0.126 s⁻¹ and 0.13 s⁻¹ and 0.131 s⁻¹ and 0.132 s⁻¹; the kon is 180000 M⁻¹ s⁻¹ and 184000 M⁻¹ s⁻¹ and 175000 M⁻¹ s⁻¹. In the experiment with Human CLEC12A-His [1], the Kd worked out at 0.98 nM, the koff came out at 0.000735 s⁻¹ and the kon turned out to be 750000 M⁻¹ s⁻¹. In the experiment with Human CLEC12A-His [2], this molecule had a Kd of 1.1 nM, a koff of 0.000858 s⁻¹ and a kon of 799000 M⁻¹ s⁻¹.
